Data taken from patent US20220195049A1 (Scripps Research, published 2022).
Numbering of substitutions follows the chain as printed.

B1: KL001 (PL110) (antibody, V domains shown)
VH: QVQLVESGAEVKKPGSSVKVSCKASGGTFSSYAISWVRQAPGQGLEWMGRIIPILGIANYAQKFQGRVTVTADKSTSTAYMELSSLRSEDTAVYYCARSGYSYAYGSFDYWGQGTLVTVSS
VL: QLVLTQPPSVSGAPGQTVTISCTGPTIGAGYDVHWYQQLPGAAPKLLIYGNLNRPSGVPDRFSGSKSGTSASLAITDLQAEDEADYYCQSYDSRLGVVFGGGTKLTVLR
notes: IgG (VH-CH1-hinge-CH2-CH3 and VL-Ck); also called KL001 clone
B2: KL001-16 (antibody, V domains shown)
VH: B1 VH with S102G
VL: QLVLTQPPSVSGAPGQTVTISCTGPTIGAGYDVHWYQQLPGAAPKLLIYGNLNRPSGVPDRFSGSKSGTSASLAITDLQAEDEADYYCQSYDSRLGVVFGGGTKLTVL
B3: KL001-02 (antibody, V domains shown)
VH: B1 VH with Y101H, S102G
VL: B2 VL with A29Q
B4: KL001-07 (antibody, V domains shown)
VH: B1 VH with I51Q, S102G
VL: B2 VL
B5: KL001-20 (antibody, V domains shown)
VH: B1 VH with L55M, S102G
VL: B2 VL with R94T
B6: KL001-14 (antibody, V domains shown)
VH: B1 VH with S102G, G106Q
VL: B2 VL with T26Q
B7: KL001-21 (antibody, V domains shown)
VH: B1 VH with I54V, S102G
VL: B2 VL with S90A, R94T
B8: KL001-23 (antibody, V domains shown)
VH: B1 VH with S102G, S107V, Y110H
VL: B2 VL
B9: KL001-26 (antibody, V domains shown)
VH: B1 VH with S102G
VL: B2 VL with A29Q
B10: KL001-15 (antibody, V domains shown)
VH: B1 VH with S102G
VL: B2 VL with G28Q
B11: KL001-10 (antibody, V domains shown)
VH: B1 VH with S102G
VL: B2 VL with S93Q, R94T
B12: KL001-17 (antibody, V domains shown)
VH: B1 VH with S102G
VL: B2 VL with T26V
B13: KL001-11 (antibody, V domains shown)
VH: B1 VH with S102G
VL: B2 VL with S93R, R94T
B14: KL001-27 (antibody, V domains shown)
VH: B1 VH with S102G
VL: B2 VL with P25Q, R94T, L95D
B15: KL001-18 (antibody, V domains shown)
VH: B1 VH with S102G
VL: B2 VL with P25Q, R94T, L95E
B16: KL001-22 (antibody, V domains shown)
VH: B1 VH with I52S, S102G
VL: B2 VL with R94T
B17: KL001-13 (antibody, human IgG1, kappa, V domains shown)
VH: B1 VH with S102G
VL: B1 VL with P25Q
notes: also called KL001-13 candidate antibody
B18: KL001-04 (antibody, V domains shown)
VH: B1 VH with S102G, D109A, Y110A
VL: B2 VL with R94T
B19: KL001-08 (antibody, V domains shown)
VH: B1 VH with S31G, I54A, S102G
VL: B2 VL with R94T, L95H
notes: In the Biacore assay it was captured by anti-human IgG (Fc), so it carried a human Fc there; also called KL001-8
B20: KL001-12 (antibody, V domains shown)
VH: B1 VH with S102G
VL: B2 VL with R94A
B21: KL001-24 (antibody, V domains shown)
VH: B1 VH with I57Q, S102G
VL: B2 VL with Y31F
B22: KL001-06 (antibody, V domains shown)
VH: B1 VH with S102G, Y110V
VL: B2 VL
B23: KL001-09 (antibody, V domains shown)
VH: B1 VH with G56Q, S102G
VL: B2 VL with T26P, R94T, L95P
B24: KL001-19 (antibody, V domains shown)
VH: B1 VH with S102G
VL: B2 VL with R94T, L95V

target: T1, mouse PD-L1 on IFN-gamma-treated MC38 murine colon cancer cells (mouse, UniProt Q9EP73 19-290); assay: the sentence names no assay
T1 construct: whole, on cells; also called mouse PD-L1 protein
T1 sequence (Q9EP73 19-290): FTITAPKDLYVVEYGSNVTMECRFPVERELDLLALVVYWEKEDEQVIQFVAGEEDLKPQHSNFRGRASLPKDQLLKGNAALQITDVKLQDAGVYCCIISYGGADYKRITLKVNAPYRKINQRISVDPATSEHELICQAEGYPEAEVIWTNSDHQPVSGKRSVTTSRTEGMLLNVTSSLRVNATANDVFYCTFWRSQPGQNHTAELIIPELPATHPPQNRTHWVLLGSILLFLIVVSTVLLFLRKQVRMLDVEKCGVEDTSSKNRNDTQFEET

Row | binding result | Binder
1 | binds | B1

target: T2, PD-L1-Fc (PD-L1 antigen protein, extracellular region Met1-Thr239 fused to human Fc) (human, UniProt Q9NZQ7 19-239); assay: BLI (Octet); PD-1-coated biosensor dipped in a mix of PD-L1 antigen protein and antibody; KD from the Octet software
T2 construct: range 1-239; the secreted protein lacks it; also called PD-L1-Fc antigen; pCEP4-PDL1-Fc product; not shown: human Fc fragment of the pCEP4-Fc vector
T2 sequence (Q9NZQ7 19-239): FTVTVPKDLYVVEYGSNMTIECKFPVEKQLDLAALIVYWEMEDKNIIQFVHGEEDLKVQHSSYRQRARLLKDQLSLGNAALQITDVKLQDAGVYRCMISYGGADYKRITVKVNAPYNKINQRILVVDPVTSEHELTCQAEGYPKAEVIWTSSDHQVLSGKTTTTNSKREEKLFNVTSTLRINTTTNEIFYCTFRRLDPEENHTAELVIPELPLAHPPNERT

Row | Kd | Binder
2 | 58.4 pM | B1
3 | 9.08 pM | B2
4 | 21.6 pM | B3
5 | 13.7 pM | B4
6 | 21.3 pM | B5
7 | 20.4 pM | B6
8 | 28.3 pM | B7
9 | 26.7 pM | B8
10 | 57.2 pM | B9
11 | 5.8 pM | B10
12 | 20.1 pM | B11
13 | 18.3 pM | B12
14 | 16.3 pM | B13
15 | 61.2 pM | B14
16 | 16.1 pM | B15
17 | 49 pM | B16
18 | 4.88 pM | B17
19 | 13.6 pM | B18
20 | 14.2 pM | B19
21 | 15 pM | B20
22 | 40.8 pM | B21
23 | 16.9 pM | B22
24 | 21.6 pM | B23
25 | 6.55 pM | B24

target: T3, mouse PD-L1 antigen protein (mouse, UniProt Q9EP73 19-238, limits assumed); assay: SPR (Biacore T200), antibody captured by anti-human IgG (Fc), PD-L1 as analyte, 1:1 model
Experimental: (§1) 3) In order to remove the bound antibody every cycle, a regeneration solution (3 M MgCl₂) was injected at a flow rate of 30 μl/min for 30 seconds, and the experimental data were obtained using a 1:1 binding model of BIA evaluation software version 1.0.

T3 sequence (Q9EP73 19-238 limits assumed): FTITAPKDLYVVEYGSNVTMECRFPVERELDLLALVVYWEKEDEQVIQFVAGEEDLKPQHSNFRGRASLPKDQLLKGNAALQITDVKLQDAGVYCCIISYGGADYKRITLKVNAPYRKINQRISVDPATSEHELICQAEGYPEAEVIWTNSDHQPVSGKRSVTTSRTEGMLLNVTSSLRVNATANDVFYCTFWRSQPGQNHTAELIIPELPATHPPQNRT

Row | Kd | Binder
26 | ~2800 pM | B17
27 | 6400 pM | B19

target: T4, human PD-L1 antigen protein (Sino Biological) (human, UniProt Q9NZQ7 19-238); assay: as above
T4 construct: Bought from Sino Biological
Experimental: as §1

T4 sequence (Q9NZQ7 19-238 limits assumed): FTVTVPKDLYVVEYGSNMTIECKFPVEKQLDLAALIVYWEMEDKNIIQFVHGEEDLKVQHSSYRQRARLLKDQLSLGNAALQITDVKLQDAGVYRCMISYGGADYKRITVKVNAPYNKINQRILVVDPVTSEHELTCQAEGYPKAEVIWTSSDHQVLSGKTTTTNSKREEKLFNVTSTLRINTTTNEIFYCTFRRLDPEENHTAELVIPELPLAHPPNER

Row | Kd | Binder
28 | ~63.2 pM | B17
29 | 67.1 pM | B19

target: T3, mouse PD-L1 antigen protein; assay: SPR (Biacore T200), antibody captured by anti-human IgG (Fc) on a CM5 chip, mPD-L1 as analyte, 1:1 binding model
Experimental: as §1

Row | koff | kon | Binder
30 | 0.00878 s⁻¹ | 3.14e+06 M⁻¹ s⁻¹ | B17
31 | 0.0106 s⁻¹ | 1.65e+06 M⁻¹ s⁻¹ | B19

target: human PD-L1 expressed on the cell surface (human, UniProt Q9NZQ7 19-290); assay: cell-based or functional assay
Sequence (Q9NZQ7 19-290): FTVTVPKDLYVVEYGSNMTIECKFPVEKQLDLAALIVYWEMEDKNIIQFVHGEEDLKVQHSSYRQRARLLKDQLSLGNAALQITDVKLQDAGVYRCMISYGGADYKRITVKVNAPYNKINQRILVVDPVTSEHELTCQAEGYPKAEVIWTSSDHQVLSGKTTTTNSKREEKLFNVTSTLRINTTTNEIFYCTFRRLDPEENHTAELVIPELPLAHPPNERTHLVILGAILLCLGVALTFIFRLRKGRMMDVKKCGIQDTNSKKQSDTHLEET

Row | PD-1/PD-L1 binding inhibitory performance relative to 100% of the MK3475 antibody (Promega PD-1/PD-L1 Blockade Bioassay) | Binder
32 | 89% | B1

target: T4, human PD-L1 antigen protein (Sino …); assay: SPR (Biacore T200), antibody captured by anti-human IgG (Fc) on a CM5 chip, hPD-L1 as analyte, 1:1 binding model
Experimental: as §1

Row | koff | kon | Binder
33 | 0.000319 s⁻¹ | 5.05e+06 M⁻¹ s⁻¹ | B17
34 | 0.000277 s⁻¹ | 4.13e+06 M⁻¹ s⁻¹ | B19
